Assay results from the nanobody polyreactivity screen of Harvey et al. (2022).

Assay: yeast display, Sf9 membrane polyspecificity reagent, FACS + sequencing; frameworks hold sequencing errors
Method in brief: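 Nanobodies came from a synthetic yeast display library in Saccharomyces cerevisiae BJ5465, induced with galactose for 36–48 hours and stained for 1 hour at 4 °C with 10% biotinylated, detergent-solubilized Sf9 membrane reagent. Cells were enriched on streptavidin microbeads and then FACS-sorted, with low and high (top ~1%) gates set on anti-HA fluorescence for expression and streptavidin fluorescence for reagent binding. Each polyreactivity label reflects the gate a clone came from. Genes were amplified by colony PCR, sequenced by MiSeq 2 × 250 and filtered by CDR length.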

Sequence | polyreactivity (PSR sort gate)
QVQLVESGGGLVQAGGSHRLSCAASGSTFGDYAMGWYRQAPGKERELVAAISVRGGSTYYADSVKGRFTISRDNAKNTVYLQMNSLKPVVTAVYYCNKDLYRYPGYDYWGQGTQVTVSS | high polyreactivity
QVQLVESGGGLVQAGGSLRLSCSASGRTFIVYAMGWYRQAPGKERELVAAITTSVGRTYYADSVKGRFTISRDNAKNTVYLQMNSLKPEDTAVYYCAADRLDGYSEYYYWGQGTQVTVSS | low polyreactivity
QVQLVESRGGLVQAGGSLRLSCSASGRIFTTYAMGWYRQAPGKEREFVAAISRSGGSTYYADSVKGRFTISRDNAKNTVYLQMNSLKPEDTAVYYCAAVPTSNSLRSSFSYWGQGSQVTVSS | high polyreactivity
QVQLVESGGGLVQAGGSLRLSCAASGSIFPYAMGWYRQSPGKQRQLVAVISWSGASTYYADSVKGRFTISRDNAKNTVDLQMNSLKPEDTAVYYCAVYRYYKLVHLYGYDYWGQGTQVTVSS | high polyreactivity
QVQLVESGGGLVQAGGSLRLSCAASGSTFFRNAMGWYRQAPGKERELVAGITSGVTTYYADSVKGRFTISRDNAKNTVYLQMNSLKPEDTAVYYCAARRTGYRLRKSDYWGQGTQVTVSS | high polyreactivity
QVQLVESGGGLVQAGGSLRLSCAASGYTFLPNAMGWYRQAPGKESEFVAAISYSGGRTYYADSVKGRFTISRDNAKNTVYLLMNSLKPEDTAVYYCARDRRYWAVLSDYWGQGTQVTVSS | low polyreactivity
QVQLVESGGGLVQAGGSLRLSWAASGLTFTHNAMGWYRQAHGKERELVAAISRRGGSTYYADSVKGRFTISRDNAKNTVYLQRNSLKPEDTAVYYCNAPVKVRATTNWEYDYWGQGTEVTVSS | high polyreactivity
QVQLVESGGGLVQAGGSLRLSCSASGIIFGFYAMGWYRQAPGKERELVAAITNDGGNTNYADSVKGRFTISRDNAKNTVYLQMNSLKPEDTAVYYCNADRTQDRNPYTYATFDYWGQGTQVTVSS | low polyreactivity
QVQLVESGGGLVQAGGSLRLSCAASGSTFSYNAMGWYRQAPGKERELVAAISRGGITNYADSVKGRFTISRDNAKNTVYLQMNSLKPEDTAVYYCAVRHVWPWQGYDYWGQGTQVTVSS | low polyreactivity
QVQLVESGGRLVQAGGSLRLSCAASGSIFYFNAMGWYRQAPGKERELVATISRRGGSTYYADSVKGRFTISRDNAKKTVYLQMNSLKPEDTAVYYCAADYYTLYPVYIKRYGYWGQGTQVTVSS | high polyreactivity
QVQLVESGGGLVQAGGSLRLSCAASGSIFYYNAMGWYRQAPGKERELVAGISYTGGSTYYADSVKGRFTISRDNAKNTVYLQMNSLKPEDTAVYYCAAVRQYYFRYKINTSGYQYYYWGQGTQVTVSS | high polyreactivity
QVHHVESGGGLVQAGGSLRLSCAASGRTFRYKAMGWYRQAPGKETELVARISRTGGRTYYADSVKGRFTISRDNAKTTVYLQMNSLKPEDTAVYYCNARKRYYSTRYNYWGQGTQVTVSS | high polyreactivity
QVQLVESGGGLVQAGGSLRLSCAASGNMFYANAMGWYRQAPGKERELVAAISGSVCSTYADSVKGRFTISRDNAKNTVYLQMNSLKPEDTAVYYCNASVLDAIFYKSVGYDYWGQGTQVTVSS | low polyreactivity
QDQLVESGGGLVQAGVSLRLICAASGRTFYLYAIGWYRQAPGKERELVAAITWGGATTYYADSVKGRFTISRDNAKNTVYLQMNSLKPEVTAVYYCAAGGYTVWHYQYYAMDYCGQGTQVTVSS | low polyreactivity
QVQLVESGGGLVQAGGSLRSSCAASGSLFTSNTMGWHRQAPGKERELVAAITSSGGSMFYADSVKGRFTISRDNAKNTVYLQMNSLKPEDNAVYYCAADTIGYHDWYDYWGQGTQVTVSS | low polyreactivity
QVQLVESGGGLVQAGGSLRISCAASGVIFGTYAMRSYRQAPGKERELVAAITSGGTTIYADSVKGRFTISRDNAKNTVYLQMNSLKPEDTAVYYCAARRLYVGYGYDYWGQGTQVTVSS | high polyreactivity
HVQLVESGGGLVQAGGSLRESCAASGRTFDDIAMGRYRQAPGKERELVAAINWSGASTYYADSVKGRFTISRDNAKNTVYLQMNSLKPEDTAVYYCAAVFWKSDSAYYEYGYWGQGTQVTVSS | low polyreactivity
QVQLVESGGGLVQAGGSLRLSCAASGSIFTRNAMGWYRQAPGKERELVAAISWRGGITNYADSVKGRFTISRDNAKNTVYLQMNSLKPEDTAVYYCNKKRTRGGYGYWGQGTQVTVSS | high polyreactivity
QVQLVESGGGLVQAGGSLRLSCAASGSIFEPNAMGRYRQAPGKEREFVAAISGSGGSTYYADSVKGRFTISRDNAKNTVYLQMNSLKPEDTAVYYCATRGKRSYFRTFYYWGEGTQVTVSS | high polyreactivity
QVQLVESGGGLVQAGGSLRLSCAATGRIFLKYTMGWYRQAPGKERELVAAISRGRSTYYADSVKGRFTISRDNAMNTVYLQMNSLKPEDTAVYYFAATSYRRTGYYYWGQGTQVTVSS | high polyreactivity
QVQLVESGGRLVQAGGSLRLSCAASGSIFVKYAMGWYRPAPGKERELVAAISGSGGSTYYADSVKGRFTISRDNAKTTVYLEMNSLKPEDTAVYYCAADDYFYSGRYGFEFWGHGTQVTVSS | low polyreactivity
QVHLVESGGGLVQAGGSLRLSCAASGFTFRFYAMGCYIQAPGKERELVAAISSTGIRTYYADSLKGRFTISRDNSKNTDYLQMNSLKPEDTAVYYCAKLHRDSILDYWGQGTQVTVSS | high polyreactivity
QVQLVESGGGLVQAGGSLRLSCAASGFISPQNTMGWYRQAPGKERELVAAITSGGSTYYADSVKGRFTISRDNAKNTVYLQMNSLKPEDTAVYYCAARPYGTWTYGYWGQGTQVTVSS | low polyreactivity
QGQHVESGGGLVQAGGSLRLSCAASGFTFAHNAMGWDRQAPGKETDFVAAITSRGGSTYYADSVKGRFTISRDNAKNSVYFQMYSPNPEDTAVYYCAADDYIYTVYSYTYQYWGQGTHVTVSS | low polyreactivity
QVQLVESGGGLVQAGGSLRLSCAASGFTFNYAMGWYTQAPGKERELVAAISSAGTTYYADSVKGRFTISRDNAKNTVYLQMNSLKPEDTAVYYCAALARPKQDRYRYYYWGQGTQVTVSS | high polyreactivity
QVQLVESGARLVQAGGSLRLSCAASAYTLVGYAMGWYRQEPGKERELVADINFSGGRTYYADSVKGRFTISRDNAKNNVYLQMNSLKPEDTAVYYCNAAGALSWFYYGYDYWGQGTQVTLSS | low polyreactivity
QVQLVESGGGLVQAGGSLRLTCAASGFIFYYYTIGWYRQAPGKERELVAAIRTDGNTYYADSVKGRFTISRDNAKNTVYFQMNSLKPEDTAVYYCAAKIPRPYAMDYWGQGTQVTVSS | low polyreactivity
QVQIVESGGGLVQAGGSLRLSCAASGRTFLVNSMGWYRQAPGKEMELVAVITNGGSTYADSVKGRFTISRDNAKNTVYLQMNSLKPEDTAVYNCAARGNRWRSPSGSPYYYWGQGTQVTVSS | high polyreactivity
QVQLVESGGGLVQAGGSLRLSCAASGRTCFPYAMGWYRQAPGKERELVDAISSGGRTNYADSVKGRFTISRDNAKNTVYLQMNSLKPEDTAVYYCAARGYLRLYSYDYWGQGTQVTVSS | high polyreactivity
QDQLVESGGGLVQAGGSLRLSCAASGRTFPPYGMGWSRQAPGKERELVAAISKSSGSTNYADSVKGRFTISRDNAKNTVYLQMNSLKPEDTAVYYFNVDLYRWSKLAGAYRMDYWGQGTQVTVSS | low polyreactivity
